± gives the uncertainty stated by the source.
Assay: amyloid nucleation score (Sup35N fusion, yeast selection) (log enrichment); library NNK2; higher = more nucleation; inactive = no reads after selection
In short: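 Sup35N was fused to peptides of 20 random codons and expressed in psi-negative yeast, which were induced with 100 μM copper sulfate for 24 hours and then grown on medium lacking adenine and uracil for 7 days at 30°C. Plasmid inserts from input and output were sequenced on Illumina. The nucleation score is the DiMSum log enrichment of output over input reads, centred on the mode score of non-aggregating sequences. Sequences with under 100 input reads were left out, and random libraries had three technical output replicates.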

| Substance | amyloid nucleation score |
| --- | --- |
| IANYSFELFII | 2.87 ± 0.1 |
| FYCCIITYLDMA | 6.667 ± 0.026 |
| KVMGYGYA | -1.02 ± 0.55 |
| MSSASQILAHDYQNSYG | -0.383 ± 0.32 |
| IRKGSHGSKMIEPVAMRSAC | 4.88 ± 0.083 |
| DLKVDQSVWRSLDMNALVAN | 1.27 ± 0.44 |
| VDVNVHIAGIWLWFYLWRYV | -0.768 ± 1.1 |
| LLEFTLLTISQRPYTWNTVE | 0.862 ± 0.17 |
| IDVLYCHDSL | 0.311 ± 0.42 |
| YMFNSWYGLSSLWGKSKKMS | -0.538 ± 0.26 |
| WAYPRNVQ | 0.327 ± 0.38 |
| SALRVSEGMLSSGEIAHLVY | -0.052 ± 0.23 |
| IFNLSRAQTVINL | 5.34 ± 0.063 |
| LCSVQLRLMVAHNSRHLACM | 1.5 ± 0.25 |
| SVLHPLTSKWNGKKWV | inactive |
| TELHLTDFWLRIMRQLFRFS | 1.61 ± 0.52 |
| IMIFSLVTMLDVNGTIC | 7.477 ± 0.047 |
| ELFRDNTGSSVVGNSRSSDA | 0.438 ± 0.17 |
| GRSSAWFNEGRLW | 0.383 ± 0.39 |
| CLDLLWHSWASYLLAGALWW | 0.94 ± 0.74 |
| NGYRNFIRGHDSRFRGVTTT | 4.66 ± 0.05 |
| RCSDRKRRFSYSNWYGHGYG | -0.448 ± 0.48 |
| SLTLLGLNR | -0.22 ± 0.22 |
| RLRDRNDHVLRCSHYWIQDW | 0.956 ± 0.57 |
| DNDMG | -0.267 ± 0.25 |
| LYSMSHCWHVQCWEFDSYVG | -0.174 ± 0.23 |

| Substance | amyloid nucleation score |
| --- | --- |
| SFYWKMVW | 0.512 ± 0.33 |
| MTKHV | 0.241 ± 0.8 |
| LYIYLNYFNTAVTFYGCVCS | 3.94 ± 0.052 |
| SKQCSKILTIKRMISLTGNE | -0.542 ± 0.49 |
| MIFYDAIGWKLGNRGSN | -0.728 ± 0.45 |
| CWDRFTYEYLSFYSLISRV | inactive |
| RTPTRILQAMLFYSRDHYSI | 0.218 ± 0.8 |
| HNAEANNVS | -0.492 ± 1.1 |
| HGICRWL | 0.208 ± 0.25 |
| YMMSRASSVIIEREYK | 0.479 ± 0.74 |
| TEASLMWRYWDGDPWQWSFD | inactive |
| VSKMGYRDALVAREGLCGVV | 0.072 ± 0.38 |
| TYVCDNTESYTCLWLL | 7.791 ± 0.038 |
| TSNSTQLEDLV | 0.309 ± 0.45 |
| TYVMPSVVIKNCH | -0.267 ± 0.79 |
| CLKPFRHTFEFLYQVDFTEV | -1.56 ± 1.1 |
| KLYSQTVSANLGVGWSSS | 2.12 ± 0.15 |
| CEGNGVFYGLPYSGSDIPNR | -0.719 ± 0.61 |
| GIHCGR | 3.24 ± 0.06 |
| TMKHLFRDGRSIRLLTCWVS | -0.931 ± 0.42 |
| PIFLFQRYPLLGLWLKKACD | inactive |
| RPFDHANRCRSAVYT | 1.63 ± 0.47 |
| GDFSPYYCHCYIIMVCGMLG | inactive |
| GTNHWTVRLIYLVLHLDRDG | 0.583 ± 0.41 |
| AIWVMVANSMHCCVA | 8.622 ± 0.027 |
| VSHSSIWSGSLKKSVSCDHV | inactive |

| Substance | amyloid nucleation score |
| --- | --- |
| TLHFKFMVIRRN | -0.254 ± 0.63 |
| ARRKVSHNV | 0.205 ± 0.77 |
| DDVSHPHLKCIVWD | inactive |
| TGVCPR | -0.674 ± 0.5 |
| ISNVNLTE | -0.763 ± 0.4 |
| GTPRFEVNIMFHTVDS | 1.57 ± 0.22 |
| KCIYDFHHRKSSVRDSLSFH | -1.6 ± 0.75 |
| YLYGCGNMVVIWRSGRQMDI | -1.42 ± 0.49 |
| KQIVFSANFDHRGGLVVLRW | 3.08 ± 0.073 |
| GVCSGFPFVRFRNIYIRRLA | 3.22 ± 0.078 |
| SGFTVEESWTLLCRIVSREG | 1.22 ± 0.34 |
| LSPPYYYHMNCLPYNMSIWP | 2.39 ± 0.09 |
| HYGNSWY | 0.958 ± 0.48 |
| MLDLNQFLCRGFKLTRPYGL | -0.155 ± 0.54 |
| MHRSCGEIACTKKVAIEMKD | 1.34 ± 0.18 |
| IGIIYFIARFAVVPRSGIRQ | -0.114 ± 1 |
| ITSSRDDVSYTVGPKDMFES | 1.17 ± 0.37 |
| ALFQECYPGMGNYQGSVATT | 1.09 ± 0.35 |
| LVKLEYALSVFRENSGSNLN | 1.07 ± 0.3 |
| GYSVH | -0.632 ± 1.1 |
| YKLTGLDYKWASLNATWETQ | inactive |
| NMYFEVALFT | -1.22 ± 0.64 |
| SFCCFFRSSLVFNFLVYISG | 0.081 ± 1.1 |
| LFMACLIGIFFHVETTRCRW | 2.5 ± 0.13 |
| ILSDKCLIGIGCSISSDTAG | -0.352 ± 0.38 |
| QAPLWENSVSVPRLWWNSLS | -0.342 ± 1.1 |

| Substance | amyloid nucleation score |
| --- | --- |
| KSVWLKVGCQPPIRFEFCEM | 0.037 ± 0.49 |
| LYRFAMLLRLGARSVNMLGK | -0.573 ± 1.1 |
| CVKVNWVSV | -0.81 ± 0.76 |
| DWRLARLSSVRFLNGIDCDF | 0.015 ± 0.56 |
| KMWIRLLRSEIPKCVGLTVS | 0.66 ± 0.23 |
| FRRQSPNMQPSCWTDHGLRG | -0.105 ± 1.1 |
| LIFRVFFALTVGIRRIMHML | 5.83 ± 0.059 |
| TCFEEFLQKFMYCATFMKKM | -0.403 ± 0.78 |
| VWPLFAEDGCNANGVVNQVS | 0.955 ± 0.22 |
| TDRLRFIYSGGVEFFVPVLL | inactive |
| YDSFMVGVCYAG | -1.42 ± 1.1 |
| SEFRHGSYYSGVTEVRFWVQ | 2.26 ± 0.11 |
| CSFCRPFVTCILIRSKVCGW | 1.21 ± 0.11 |
| GSRPEWARVLGSLEIGCGAK | 0.535 ± 0.3 |
| FHLFSVGTEGTPRRRKFAGD | -0.481 ± 0.78 |
| TLLSFRTVDNKIYKVLWVKT | 0.418 ± 0.48 |
| NWVPLLFDY | inactive |
| ASRKSLPEWLWIAWRHASGT | 1.29 ± 0.15 |
| YTLFNDASRLFD | inactive |
| AMRGI | 1.26 ± 0.23 |
| STLVWSEIIF | 0.592 ± 0.47 |
| NVRDSYVNNCMTKGPRLNGV | -0.686 ± 0.34 |
| WTMRDLCG | 0.526 ± 0.3 |
| GAHNMREGAAPGRKRVVLAM | 1.22 ± 0.35 |
| DNCFAAFSFRRGVAYVDL | -0.52 ± 0.38 |
| MRPAPIINN | 1.14 ± 0.44 |

| Substance | amyloid nucleation score |
| --- | --- |
| SGVIHSVFVWKCLITGGM | -0.711 ± 0.38 |
| IERHIYGMSDAVLGVD | -0.493 ± 1.1 |
| SLWKLGSLMSTFFEL | -0.758 ± 0.45 |
| VVGSFFCQNMKHLYRELRQS | inactive |
| YCMSYCRSTCYHQEFHGPAC | 4.34 ± 0.072 |
| VFTYLSSDFYTGWTMVNHIM | -0.357 ± 0.21 |
| CAKLGTSSRFIFE | 0.073 ± 1.1 |
| DSVSTVVFII | 4.47 ± 0.045 |
| CFCQTCSLSRAKSMEEGCLR | -1.08 ± 0.54 |
| STPLGPFLYF | -0.961 ± 0.76 |
| VDLGNYSSYRDFRETRLRPM | 0.229 ± 0.39 |
| IRSGIIPVTVGPYHGALYMV | 0.662 ± 0.74 |
| SVNASGT | -0.114 ± 0.8 |
| TLGLLDHWSLREWDTTGWVE | 0.691 ± 0.37 |
| AKPTRGSCSGT | 2.79 ± 0.12 |
| ANGIFAEGGVREDSIH | inactive |
| IYSFSASNW | 0.048 ± 0.79 |
| MVLEGHKCYGLRNGPNNARI | 0.451 ± 0.49 |
| FVNATVLR | 1.24 ± 0.16 |
| LVKLEKHRLKVVNDYNSFEG | inactive |
| SCSSLYT | 1.11 ± 0.43 |
| LIYRCN | -0.673 ± 1 |
| SLFLARRASTIARLFKRVYM | 0.127 ± 0.63 |
| CLAVIQWFPCIVDMGLECGF | 2.96 ± 0.049 |

— the supplement of paper PMC12042874
